Source: US11994512B2, “Single-cell genomic methods to generate ex vivo cell systems that recapitulate in vivo biology with improved fidelity” (Massachusetts Institute of Technology, priority 2018, dated 2024)

B1: Q9D1C1 (protein, UniProt Q9D1C1 1-179, looked up)
chain: MASQNRDPAAASVAAVRKGAEPCGGAARGPVGKRLQQELMILMTSGDKGISAFPESDNLFKWVGTIHGAAGTVYEDLRYKLSLEFPSGYPYNAPTVKFLTPCYHPNVDTQGNICLDILKDKWSALYDVRTILLSIQSLLGEPNIDSPLNTHAAELWKNPTAFKKYLQETYSKQVSSQDP
modifications: full-length
B2: Q9DA97 (protein, UniProt Q9DA97 1-430, looked up)
chain: MAEKPTNTSVPIPGSEDPQKENIRCLSTLGHFGFECLPTQLVNKSIQKGFSFNILCVGETGIGKTTLINTLFNTNLKETKSSHFYSKVGLTVKTYELLERNIPLRLTVVKTVGYGDQINKEASYQPVVDYLDAQFEAYLQEELKIKRSLADYHDSRIHVCLYFITPTGHSLKSLDLLTMKSIDRRVNIIPLIAKADSLSKNDLQRFKNNIMSELNSNGIQIYQFQVDDEASAQVNSSGLLPFAVVGSMEEVKVGKRMVRGRHYPWGVLQEVENENHCDFVKLRDLLLSTNMEDLKDQTHTQHYECYRSNRLQKLGFSDTGPDNRPVSFQEMYEAKRREFHNQCQKEEEELKQTFMQRVKEKELTFKDAEKELQDKFEHLKRIQQEEILKLEEERRKLEEQIIDFYKMKAASESAQAQVCTNIKKDKDRKK
modifications: full-length
B3: Q9D3P9 (protein, UniProt Q9D3P9 1-169, looked up)
chain: MRGMNLQLVCLTLLAFSSWSLCSDSEEDVRALEADLLTNMHTSKISKASPPSWKMTLLNVCSLINNVNSPAEEAGDMHDDDLVGKRKLPLVLDGFSLEAMLTIFQLQKICRSRAFQHWEIIQEDILDNVNDKNEKEEVIKRKIPYILKRQLYENKPRRPYILKRGSYYY
modifications: full-length
B4: Q9D816 (protein, UniProt Q9D816 1-490, looked up)
chain: MDPVLVLVLTLSCLLLLSLWRQNSGRGKLPPGPTPFPIIGNILQIDIKNISKSFNYFSKVYGPVFTLYFGSKPTVVVHGYEAVKEALDDLGEEFSGRGSFQIFERINNDLGVIFSNGTKWKELRRFSIMTLRSFGMGKRSIEDRIQEEASCLVEELRKANGSLCDPTFILSCAPSNVICSVIFHNRFDYKDEKFLNLMERLNENFKILNSPWMQVYNALPTLINYLPGSHNKVIKNFTEIKSYILGRVKEHQETLDMDNPRDFIDCFLIKMEQEKHNPHSEFTIESLMATVTDIFVAGTETTNITLRYGLLLLLKHTEVTAKVQAEIDHVIGRHRSPCMQDRTRMPYTDAMVHEIQRYIDLIPNNVPHAATCNVRFRSYFIPKGTELVTSLTSVLHDDKEFPNPEVFDPGHFLDENGNFKKSDYFMPFSIGKRMCVGEALARTELFLILTTILQNFNLKSLVDTKDIDTTPVANTFGRVPPSYQLYFIPR
modifications: full-length
B5: Q9D9Z1 (protein, UniProt Q9D9Z1 1-312, looked up)
chain: MAAPEAEAQETAFRTTGPPTDSEPRPFPPSSRKFPFESAAADSNEDWAVAAEHYLKGSGENGGWEQPAPGVQPSHPATMASAKTVCDAQPHSMPSCGLPADTQTRATSKLPVKSKEADLLRHLHPGGPEPDVTKVTKSRRENGQVKAAETASRRNLRNSYKPFNKQKPEEELKDKNELLEAVNKQLHQKLTETQGELKDLTQKVELLEKFQDNCLALLESKGLNPGQETLASKQEPTTDHTDSMLLLETLKDELKVFNETAKKQMEELQALKVKLKLKEEESVQFLEQQTLCKDEASDFTIILEEMEQLLEM
modifications: full-length
B6: Q9D009 (protein, UniProt Q9D009 1-231, looked up)
chain: MSLPVVRLVWLGRVHYSELLALQEHWLRRLQADPRPGTLSGTKAGVLLVCEPAGPVYTGGLRGGLTPEETTRLRALGAEVRATGRGGLATFHGPGQLLCHPVLDLRLLGLRLRTHVAALEACAVRLCELRGLQGARARPPPYTGVWLGERKICAIGVRCGRHITSHGLALNCSTDLTWFEHIVPCGLVGTGVTSLSEALQRLVTVDEVMPSFLVAFKETFKCTLISEDSPS
modifications: full-length
B7: Q9D6X6 (protein, UniProt Q9D6X6 1-382, looked up)
chain: MAGIPGLFILLVLLCVFMQVSPYTVPWKPTWPAYRLPVVLPQSTLNLAKADFDAKAKLEVSSSCGPQCHKGTPLPTYEEAKQYLSYETLYANGSRTETRVGIYILSNGEGRARGRDSEATGRSRRKRQIYGYDGRFSIFGKDFLLNYPFSTSVKLSTGCTGTLVAEKHVLTAAHCIHDGKTYVKGTQKLRVGFLKPKYKDGAGGDNSSSSAMPDKMKFQWIRVKRTHVPKGWIKGNANDIGMDYDYALLELKKPHKRQFMKIGVSPPAKQLPGGRIHFSGYDNDRPGNLVYRFCDVKDETYDLLYQQCDAQPGASGSGVYVRMWKRPQQKWERKIIGIFSGHQWVDMNGSPQDFNVAVRITPLKYAQICYWIKGNYLDCREG
modifications: full-length
B8: Q9DD24 (protein, UniProt Q9DD24 1-104, looked up)
chain: MKPCQKMEGNLEKEDEPKPEEEPKPEEKPEEGQEPEEEEKSEETFRERLIRSLQDFQEDIHNRHLSSDDLFRDVEELDEIRKVRNKLIVTRWKANRSHPYPYLM
modifications: full-length
B9: Q9D6F4 (protein, UniProt Q9D6F4 1-552, looked up)
chain: MVSVQKVPAIALCSGVSLALLHFLCLAACLNESPGQNSKDEKLCPENFTRILDSLLDGYDNRLRPGFGGPVTEVKTDIYVTSFGPVSDVEMEYTMDVFFRQTWIDKRLKYDGPIEILRLNNMMVTKVWTPDTFFRNGKKSVSHNMTAPNKLFRIMRNGTILYTMRLTISAECPMRLVDFPMDGHACPLKFGSYAYPKSEMIYTWTKGPEKSVEVPKESSSLVQYDLIGQTVSSETIKSITGEYIVMTVYFHLRRKMGYFMIQTYIPCIMTVILSQVSFWINKESVPARTVFGITTVLTMTTLSISARHSLPKVSYATAMDWFIAVCFAFVFSALIEFAAVNYFTNIQMQKAKKKISKPPPEVPAAPVLKEKHTETSLQNTHANLNMRKRTNALVHSESDVKSRTEVGNHSSKTSAVQESSEATPKAHLASSPNPFSRANAAETMSAAARGLSSAASPSPHGTLRPASLGSASTRPAFGSRLGRIKTTVNTTGAAGNVSATPPPPAPPPSGSGTSKIDKYARILFPVTFGAFNMVYWVVYLSKDTMEKSESLM
modifications: full-length
B10: Q9DCT8 (protein, UniProt Q9DCT8 1-208, looked up)
chain: MASKCPKCDKTVYFAEKVSSLGKDWHKFCLKCERCNKTLTPGGHAEHDGKPFCHKPCYATLFGPKGVNIGGAGSYIYEKPQTEAPQVTGPIEVPVVRTEERKTSGPPKGPSKASSVTTFTGEPNMCPRCNKRVYFAEKVTSLGKDWHRPCLRCERCSKTLTPGGHAEHDGQPYCHKPCYGILFGPKGVNTGAVGSYIYDKDPEGTVQP
modifications: full-length
B11: Q9DBG7 (protein, UniProt Q9DBG7 1-636, looked up)
chain: MLDFFTIFSKGGLVLWCFQGVSDSCTGPVNALIRSVLLQERGGNNSFTHEALTLKYKLDNQFELVFVVGFQKILTLTYVDKLIDDVHRLFRDKYRTEIQQQSALSLLNGTFDFQNDFLRLLREAEESSKIRAPTTMKKFEDSEKAKKPVRSMIETRGEKTKEKAKNNKKRGAKKEGSDGTLATSKTAPAEKSGLSAGPENGELSKEELIRRKREEFIQKHGKGLDKSSKSTKSDTPKEKGKKAPRVWELGGCANKEVLDYSTPTTNGTPEAALSEDINLIRGTGPGGQLQDLDCSSSDDEGATQNTKPSATKGTLGGMFGMLKGLVGSKSLSREDMESVLDKMRDHLIAKNVAADIAVQLCESVANKLEGKVMGTFSTVTSTVKQALQESLVQILQPQRRVDMLRDIMDAQRRQRPYVVTFCGVNGVGKSTNLAKISFWLLENGFSVLIAACDTFRAGAVEQLRTHTRRLTALHPPEKHGGRTMVQLFEKGYGKDAAGIAMEAIAFARNQGFDVVLVDTAGRMQDNAPLMTALAKLITVNTPDLVLFVGEALVGNEAVDQLVKFNRALADHSMAQTPRLIDGIVLTKFDTIDDKVGAAISMTYITSKPIVFVGTGQTYCDLRSLNAKAVVAALMKA
modifications: full-length
B12: Q9D8W7 (protein, UniProt Q9D8W7 1-154, looked up)
chain: MASVSTHGNQEKSPHLPPLSKQSLLFCPKSKLHIHRGEIAKIIRECQEESFWKRALPFSLISMLVTQGLVHQGYLAANPRFGSLPKVALAGLLGFGLGKASYIRVCQSKFHSFEDQLRGAGFGPEHNRHCLLTCEDCKTRRGLSEKAGSQPSAS
modifications: full-length

test system: intracellular proteome of ENR+CD and ENR organoids; test: LC-MS/MS TMT proteomics of ENR+CD versus ENR organoids; type: cell-based, C57BL/6 mice; conditions: ENR+CD versus ENR organoids, sample pairs in aggregate (n=4, 2 technical replicates from two biological donors)

Row | Molecule | Average logFC
1 | B1 | −1.255
2 | B2 | −1.147
3 | B3 | 1.285
4 | B4 | 1.132
5 | B5 | −1.13
6 | B6 | −2.176
7 | B7 | 1.179
8 | B8 | 1.262
9 | B9 | 1.263
10 | B10 | 1.386
11 | B11 | 1.192
12 | B12 | −1.397

same assay, conditions: protein abundance ratio ENR+CD versus ENR organoids, sample pair M1-1; LC-MS/MS TMT proteomics

Row | Molecule | M1-1 Log2 Median Normalized
13 | B1 | −1.316
14 | B2 | −0.99
15 | B3 | 1.731
16 | B4 | 0.664
17 | B5 | −1.473
18 | B6 | −0.836
19 | B7 | 1.521
20 | B8 | 1.266
21 | B9 | 0.695
22 | B10 | 1.983
23 | B11 | 1.346
24 | B12 | −0.573

same assay, conditions: protein abundance ratio ENR+CD versus ENR organoids, sample pair M1-2; LC-MS/MS TMT proteomics

Row | Molecule | M1-2 Log2 Median Normalized
25 | B1 | −0.925
26 | B2 | −1.148
27 | B3 | 0.439
28 | B4 | 1.318
29 | B5 | −0.579
30 | B6 | −2.401
31 | B7 | 1.393
32 | B8 | 0.97
33 | B9 | 0.98
34 | B10 | 1.517
35 | B11 | 1.118
36 | B12 | −1.182

same assay, conditions: protein abundance ratio ENR+CD versus ENR organoids, sample pair M2-1; LC-MS/MS TMT proteomics

Row | Molecule | M2-1 Log2 Median Normalized
37 | B1 | −1.1505
38 | B2 | −0.7465
39 | B3 | 0.8595
40 | B4 | 0.5735
41 | B5 | −0.8635
42 | B6 | −2.1745
43 | B7 | 0.7475
44 | B8 | 1.6605
45 | B9 | 1.4175
46 | B10 | 0.9975
47 | B11 | 0.9025
48 | B12 | −1.9045

same assay, conditions: protein abundance ratio ENR+CD versus ENR organoids, sample pair M2-2; LC-MS/MS TMT proteomics

Row | Molecule | M2-2 Log2 Median Normalized
49 | B1 | −1.63
50 | B2 | −2.635
51 | B3 | 2.111
52 | B4 | 1.971
53 | B5 | −1.605
54 | B6 | −2.621
55 | B7 | 1.055
56 | B8 | 1.153
57 | B9 | 1.959
58 | B10 | 1.047
59 | B11 | 1.401
60 | B12 | −1.927

same assay, conditions: up = enriched in ENR+CD, down = enriched in ENR; FDR<0.05 and log fold change cut-off

Row | Molecule | change
61 | B1 | down
62 | B2 | down
63 | B3 | up
64 | B4 | up
65 | B5 | down
66 | B6 | down
67 | B7 | up
68 | B8 | up
69 | B9 | up
70 | B10 | up
71 | B11 | up
72 | B12 | down
